According to the Human Domainome abundance scans (Beltran et al. 2025):

B1: Dynamin-binding protein, residues 242 to 304; numbered along this chain, Q6XZF7 (parent)
chain: EEPGTYGVALYRFQALEPNELDFEVGDKIRILATLEDGWLEGSLKGRTGIFPYRFVKLCPDTR
B2: Retinoic acid receptor beta, residues 85 to 161; numbered along this chain, P10826 (parent)
chain: YKPCFVCQDKSSGYHYGVSACEGCKGFFRRSIQKNMIYTCHRDKNCVINKVTRNRCQYCRLQKCFEVGMSKESVRND

Variants of: B1
Experiment: abundance fitness (aPCA) (normalised: wild type 0, dead -1); higher = more abundant; growth selection in yeast, the domain comes from the species named
Details: Homo sapiens

Abundance fitness, by site and new letter:
Q14: E -0.131
P3: I 0.273 | V -0.169 | H 0.088 | A -0.337 | E -0.033 | W -0.19 | K 0.18 | R -0.114 | S 0.008 | C -0.221 | F 0.059 | L 0.108 | M 0.207 | Y 0.053 | Q -0.026 | G -0.222 | T 0.126
L16: Q 0.284 | P -0.697 | N 0.35 | I 0.03 | W -0.501 | D 0.047 | T 0.344 | K -0.077 | C 0.09 | A 0.187 | H 0.141 | F -0.067 | V 0.117 | S 0.29 | G 0.073 | Y -0.137 | M 0.242 | E -0.027 | R 0.316
A15: E -0.734 | S 0.131 | T 0.06 | C -0.617 | M -0.639 | Q -0.787 | W -0.637 | G 0.019 | H -0.472 | N -0.588 | Y -0.774 | L -0.626 | V -0.608 | P -0.355 | F -0.982
Y6: M -0.394 | K -0.653 | I -0.123 | W -0.498 | F 0.071 | T -0.45 | L -0.309 | R -0.712 | D -0.754 | E -0.718 | H -0.498 | S -0.672 | C -0.502 | G -0.696 | Q -0.927 | V -0.135 | N -0.785
E17: Q 0.189 | N 0.158 | S -0.062 | G 0.072 | P -1.01 | L -0.011 | W -0.488 | H 0.229 | R 0.151 | T -0.157 | F -0.513 | K 0.391 | V -0.4 | A 0.029 | I -0.783 | C -0.259
E1: F -0.277 | G -0.163 | K 0.009 | M -0.02 | V -0.001 | H -0.8 | R -0.063 | I 0.005 | T -0.111 | Y -0.23 | S -0.112 | N -0.337 | A -0.512 | C -0.189 | D -0.369 | L -0.041
G7: N -0.719 | V 0.006 | P -0.86 | D -0.857 | S -0.292 | Y -0.661 | Q -0.258 | W -1.27 | F -0.734 | E -0.209 | A 0.36 | C 0.231 | R -0.781

Variants of: B2
Experiment: as above
Details: Homo sapiens

Abundance fitness of substitutions, site by site:
R75: L 0.102 | G 0.09 | P 0.039 | T -0.02 | C 0.175 | N 0.073 | E 0.124 | F -0.187 | A 0.137 | V 0.046 | H 0.078 | Y 0.118 | D -0.051 | S -0.045 | Q 0.163 | K -0.018 | W 0.065
N76: H -0.144 | R -0.039 | L 0.013 | A 0.084 | T -0.15 | C -0.105 | F -0.012 | I -0.149 | G -0.048 | D 0.018 | V 0.047 | M -0.061 | E 0.194 | P 0.146 | Y 0.046 | K 0.01 | S 0.148 | Q 0.058
V74: Y -0.297
D77: E 0.125 | W -0.347 | V -0.054 | H 0.087 | N -0.333 | R -0.194 | I -0.06 | Q 0.066 | S -0.093 | T -0.348 | P 0.096 | A -0.126 | M 0.007 | K -0.082 | F -0.183 | L -0.202 | Y 0.044
